Earlier results, collected in article PMC5430790.

Experiments:
[1] = biological target: TβR-II (Homo sapiens) (UniProt P37173)
[2] = biological target: TβR-I (Homo sapiens) (UniProt P36897)
Sequence of TβR-I (Homo sapiens) (P36897 34-126): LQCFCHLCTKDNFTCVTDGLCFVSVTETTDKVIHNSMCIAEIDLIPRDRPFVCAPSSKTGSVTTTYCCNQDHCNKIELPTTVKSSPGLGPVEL

Sequence of TGF-β1 (P01137 279-390): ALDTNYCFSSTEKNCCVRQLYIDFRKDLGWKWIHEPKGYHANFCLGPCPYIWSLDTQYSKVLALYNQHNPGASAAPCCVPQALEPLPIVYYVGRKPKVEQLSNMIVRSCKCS
Sequence of TβR-II (Homo sapiens) (P37173 23-166): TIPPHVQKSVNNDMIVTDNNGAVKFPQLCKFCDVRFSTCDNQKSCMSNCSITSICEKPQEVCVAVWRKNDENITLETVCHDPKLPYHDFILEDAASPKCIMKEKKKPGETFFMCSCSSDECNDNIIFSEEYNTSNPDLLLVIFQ

Kd [1]: 190 nM
Kd [2]: 70 µM
Substance: TGF-β1 (from UniProt P01137)
